According to the Human Domainome abundance scans (Beltran et al. 2025):
± gives the uncertainty stated by the source.

B1: Transcriptional regulator ERG, residues 117 to 197; numbered along this chain, P11308 (parent)
chain: NMTTNERRVIVPADPTLWSTDHVRQWLEWAVKEYGLPDVNILLFQNIDGKELCKMTKDDFQRLTPSYNADILLSHLHYLRE

Variants of: B1
Assay: abundance fitness (aPCA) (normalised: wild type 0, dead -1); higher = more abundant; growth selection in yeast, the domain comes from the species named
Conditions: Homo sapiens

Variant	abundance fitness
Q45K	0.042 ± 0.053
Q45L	-0.241 ± 0.047
Q45M	-0.083 ± 0.062
Q45I	-0.235 ± 0.085
Q45H	0.07 ± 0.071
Q45T	-0.132 ± 0.062
Q45P	-0.407 ± 0.081
Q45S	-0.005 ± 0.046
Q45R	-0.055 ± 0.034
Q45G	-0.042 ± 0.032
Q45C	-0.234 ± 0.082
Q45W	-0.292 ± 0.052
Q45V	-0.154 ± 0.04
Q45D	-0.096 ± 0.064
Q45F	-0.274 ± 0.11
Q45Y	-0.113 ± 0.082
Q45E	0.045 ± 0.043
N40S	-0.236 ± 0.05
N40C	-0.172 ± 0.071
N40T	-0.213 ± 0.058
N40L	-0.179 ± 0.044
N40Q	-0.165 ± 0.063
N40G	-0.4 ± 0.044
N40I	-0.317 ± 0.094

Variant	abundance fitness
N40Y	-0.284 ± 0.086
N40F	-0.419 ± 0.1
N40H	-0.292 ± 0.077
N40A	-0.201 ± 0.05
N40M	-0.413 ± 0.078
N40R	-0.255 ± 0.039
N40P	-0.153 ± 0.06
N40D	0.072 ± 0.058
G49N	-1.08 ± 0.31
G49I	-1.4 ± 0.5
G49A	-0.837 ± 0.083
G49D	-0.874 ± 0.14
G49L	-0.833 ± 0.096
G49T	-1.11 ± 0.2
G49Q	-0.836 ± 0.19
G49S	-0.737 ± 0.081
G49K	-0.945 ± 0.15
G49M	-0.678 ± 0.14
G49R	-0.8 ± 0.069
G49V	-0.895 ± 0.092
G49W	-1.04 ± 0.13
G49Y	-1.14 ± 0.25
G49F	-0.816 ± 0.18
V31P	-0.649 ± 0.14

Variant	abundance fitness
V31M	-0.003 ± 0.071
V31N	-0.218 ± 0.11
V31H	-0.14 ± 0.1
V31Q	-0.086 ± 0.064
V31E	-0.154 ± 0.051
V31C	-0.111 ± 0.085
V31W	-0.439 ± 0.09
V31I	0.02 ± 0.08
V31G	-0.164 ± 0.037
V31T	0.001 ± 0.064
V31R	-0.054 ± 0.038
V31D	-0.498 ± 0.12
V31K	0.06 ± 0.059
V31S	-0.015 ± 0.045
I47N	-0.492 ± 0.2
I47Y	-0.022 ± 0.11
I47P	-0.99 ± 0.21
I47C	-0.163 ± 0.071
I47H	-0.251 ± 0.13
I47K	-0.255 ± 0.066
I47D	-0.789 ± 0.21
I47A	-0.521 ± 0.077
I47W	-0.653 ± 0.075
I47T	-0.242 ± 0.068

Variant	abundance fitness
I47V	0.006 ± 0.042
I47R	-0.609 ± 0.061
I47L	-0.046 ± 0.045
I47Q	-1.08 ± 0.25
I47E	-0.712 ± 0.11
I47F	-0.176 ± 0.086
I47S	-0.751 ± 0.11
Y34Q	-0.28 ± 0.084
Y34D	-0.326 ± 0.1
Y34C	-0.186 ± 0.077
Y34R	-0.211 ± 0.04
Y34T	-0.449 ± 0.084
Y34K	-0.056 ± 0.07
Y34E	-0.2 ± 0.057
Y34H	-0.06 ± 0.094
Y34S	-0.278 ± 0.055
Y34G	-0.254 ± 0.041
Y34I	-0.171 ± 0.092
Y34P	-0.523 ± 0.16
Y34W	-0.105 ± 0.05
Y34V	-0.341 ± 0.055
Y34F	-0.021 ± 0.087
G35M	-0.047 ± 0.06
G35P	-0.302 ± 0.07

Variant	abundance fitness
G35I	-0.021 ± 0.077
G35L	-0.069 ± 0.042
G35W	-0.273 ± 0.054
G35F	-0.276 ± 0.12
G35K	0.044 ± 0.049
G35H	0.088 ± 0.073
G35V	-0.05 ± 0.035
G35S	0.012 ± 0.039
G35A	0.03 ± 0.038
G35T	0.061 ± 0.052
G35C	-0.057 ± 0.062
G35Q	0.05 ± 0.05
G35E	0.009 ± 0.042
G35R	-0.027 ± 0.035
G35D	0.063 ± 0.059
A30E	-0.051 ± 0.054
A30V	-0.095 ± 0.046
A30S	-0.103 ± 0.05
A30T	-0.051 ± 0.058
A30H	-0.108 ± 0.092
A30L	-0.103 ± 0.046
A30N	-0.217 ± 0.085
A30Y	-0.655 ± 0.2
A30P	-0.956 ± 0.2

Variant	abundance fitness
A30W	-0.324 ± 0.067
A30G	-0.181 ± 0.04
A30I	-0.164 ± 0.11
A30F	-0.403 ± 0.14
A30Q	-0.018 ± 0.059
A30K	-0.105 ± 0.061
N46M	-0.255 ± 0.066
N46D	0.023 ± 0.062
N46Y	-0.082 ± 0.073
N46Q	-0.144 ± 0.078
N46F	-0.133 ± 0.077
N46H	-0.063 ± 0.089
N46P	-0.244 ± 0.084
N46V	-0.617 ± 0.07
N46T	-0.035 ± 0.069
N46E	0.039 ± 0.053
N46I	-0.379 ± 0.13
N46R	-0.106 ± 0.036
N46S	0.012 ± 0.044
N46K	-0.104 ± 0.059
N46W	-0.201 ± 0.057
N46L	-0.251 ± 0.056
N46C	-0.066 ± 0.061
P37A	0.022 ± 0.048

Variant	abundance fitness
P37Y	-0.018 ± 0.053
P37G	-0.026 ± 0.048
P37L	0.001 ± 0.036
P37C	0.017 ± 0.06
P37H	0.016 ± 0.054
P37D	-0.027 ± 0.069
P37V	-0.024 ± 0.044
P37Q	-0.044 ± 0.055
P37R	0.014 ± 0.039
P37I	0.106 ± 0.052
P37N	0.072 ± 0.052
P37M	0.001 ± 0.049
P37K	0.054 ± 0.054
P37F	-0.143 ± 0.049
P37E	0.018 ± 0.06
P37W	-0.123 ± 0.061
P37T	0.072 ± 0.039
P37S	0.08 ± 0.039
E33D	0.002 ± 0.076
E33W	-0.169 ± 0.05
E33C	-0.307 ± 0.095
E33M	-0.105 ± 0.063
E33K	0.029 ± 0.058
E33I	-0.193 ± 0.12

Variant	abundance fitness
E33S	-0.035 ± 0.049
E33G	-0.429 ± 0.045
E33N	-0.059 ± 0.095
E33P	-0.929 ± 0.2
E33T	-0.15 ± 0.069
E33F	-0.034 ± 0.089
E33Y	-0.151 ± 0.087
E33H	-0.108 ± 0.11
L43G	-0.019 ± 0.03
L43R	-0.029 ± 0.032
L43Q	0.047 ± 0.052
L43T	0.07 ± 0.058
L43D	-0.006 ± 0.059
L43H	0.027 ± 0.079
L43I	-0.217 ± 0.15
L43M	-0.063 ± 0.054
L43Y	-0.082 ± 0.072
L43P	-0.128 ± 0.064
L43S	0.041 ± 0.044
L43N	-0.033 ± 0.096
L43K	0.071 ± 0.05
L43W	-0.079 ± 0.04
L43V	-0.083 ± 0.035
L43F	-0.105 ± 0.064

Variant	abundance fitness
L43C	0.08 ± 0.056
K32A	-0.103 ± 0.041
K32D	-0.028 ± 0.066
K32F	-0.166 ± 0.095
K32N	0.05 ± 0.088
K32T	-0.044 ± 0.055
K32G	-0.103 ± 0.034
K32V	-0.036 ± 0.04
K32S	-0.111 ± 0.048
K32M	0.003 ± 0.057
K32Y	-0.198 ± 0.1
K32E	0.053 ± 0.045
K32W	-0.158 ± 0.049
K32P	-0.468 ± 0.1
K32R	-0.052 ± 0.035
K32H	-0.037 ± 0.18
K32I	0.005 ± 0.069
K32Q	-0.109 ± 0.063
D48P	-0.295 ± 0.081
D48F	-0.399 ± 0.13
D48Y	-1 ± 0.32
D48Q	-0.227 ± 0.059
D48E	-0.076 ± 0.045
D48K	-0.123 ± 0.062

Variant	abundance fitness
D48N	0.022 ± 0.087
D48C	-0.075 ± 0.064
D48L	-0.521 ± 0.06
D48H	-0.282 ± 0.11
D48R	-0.183 ± 0.036
D48T	0.033 ± 0.052
D48V	-0.378 ± 0.051
D48S	-0.052 ± 0.044
D48W	-0.969 ± 0.13
D48M	-0.412 ± 0.079
D48G	-0.114 ± 0.034
F44N	-0.067 ± 0.082
F44S	-0.275 ± 0.052
F44Q	-0.181 ± 0.068
F44W	-0.072 ± 0.045
F44L	-0.217 ± 0.047
F44V	-0.523 ± 0.053
F44T	-0.297 ± 0.065
F44P	-0.435 ± 0.1
F44G	-0.382 ± 0.037
F44R	-0.278 ± 0.04
F44D	-0.067 ± 0.073
F44H	-0.407 ± 0.15
F44A	-0.195 ± 0.042

Variant	abundance fitness
F44I	-0.497 ± 0.15
F44Y	-0.081 ± 0.1
F44C	-0.215 ± 0.068
V39K	-0.242 ± 0.068
V39S	-0.116 ± 0.046
V39M	-0.045 ± 0.052
V39P	-0.295 ± 0.072
V39N	-0.144 ± 0.077
V39F	0.04 ± 0.074
V39W	-0.334 ± 0.05
V39L	0.066 ± 0.037
V39T	-0.002 ± 0.053
V39A	-0.169 ± 0.044
V39Y	-0.252 ± 0.088
V39I	0.007 ± 0.064
V39R	-0.278 ± 0.036
V39Q	-0.219 ± 0.063
V39D	-0.241 ± 0.072
V39C	0.005 ± 0.053
L36W	-0.253 ± 0.047
L36M	-0.038 ± 0.053
L36D	-0.426 ± 0.099
L36F	-0.038 ± 0.1
L36R	-0.81 ± 0.07

Variant	abundance fitness
L36A	-0.476 ± 0.055
L36I	-0.066 ± 0.089
L36V	-0.225 ± 0.04
L36P	-1.08 ± 0.22
L36E	-0.889 ± 0.12
L36Y	-0.375 ± 0.15
L36G	-0.563 ± 0.047
L36T	-0.357 ± 0.083
L36Q	-0.67 ± 0.12
L36N	-0.75 ± 0.16
L36C	0.014 ± 0.065
L36S	-0.829 ± 0.13
L42R	0.056 ± 0.031
L42S	0.012 ± 0.041
L42G	0.033 ± 0.029
L42D	-0.068 ± 0.063
L42F	-0.154 ± 0.082
L42K	-0.008 ± 0.054
L42Y	-0.018 ± 0.072
L42C	-0.051 ± 0.052
L42T	-0.042 ± 0.053
L42W	-0.024 ± 0.038
L42E	-0.001 ± 0.043
L42I	-0.112 ± 0.087

Variant	abundance fitness
L42N	0.078 ± 0.067
L42V	-0.027 ± 0.035
L42A	0.014 ± 0.038
D38M	-0.317 ± 0.067
D38T	-0.052 ± 0.05
D38N	-0.011 ± 0.076
D38A	-0.217 ± 0.041
D38R	-0.146 ± 0.036
D38V	-0.755 ± 0.078
D38H	-0.049 ± 0.092
D38Q	-0.067 ± 0.05
D38F	-0.541 ± 0.17
D38Y	-0.293 ± 0.088
D38C	-0.289 ± 0.085
D38K	-0.091 ± 0.056
D38S	-0.054 ± 0.043
D38W	-0.398 ± 0.056
D38G	-0.004 ± 0.031
D38E	-0.094 ± 0.045
D38L	-0.756 ± 0.083
D38P	0.046 ± 0.054
K50G	-0.089 ± 0.031
K50E	0.035 ± 0.048
K50D	-0.004 ± 0.065

Variant	abundance fitness
K50A	0.044 ± 0.037
K50H	-0.098 ± 0.084
K50C	0.015 ± 0.059
I41K	0.012 ± 0.05
I41M	-0.061 ± 0.056
I41F	0 ± 0.076
I41Y	-0.057 ± 0.073
I41A	-0.145 ± 0.044
I41H	-0.075 ± 0.083
I41C	-0.034 ± 0.053
I41E	-0.053 ± 0.051
I41T	-0.034 ± 0.057
I41L	-0.027 ± 0.038
I41W	-0.159 ± 0.045
I41D	-0.157 ± 0.072
I41Q	-0.112 ± 0.054
I41S	-0.128 ± 0.048
I41N	-0.136 ± 0.081
I41G	-0.097 ± 0.035
I41V	-0.021 ± 0.039
I41R	-0.187 ± 0.036
I41P	-0.024 ± 0.067
